The text below walks through data of publication PMC4253524 (The EMBO Journal, 2014).

This experiment concerns the target T1, Flag-tagged RelishΔS29-S45 (Drosophila melanogaster, UniProt Q94527 1-971, ΔS29-S45).
T1 sequence (looked up): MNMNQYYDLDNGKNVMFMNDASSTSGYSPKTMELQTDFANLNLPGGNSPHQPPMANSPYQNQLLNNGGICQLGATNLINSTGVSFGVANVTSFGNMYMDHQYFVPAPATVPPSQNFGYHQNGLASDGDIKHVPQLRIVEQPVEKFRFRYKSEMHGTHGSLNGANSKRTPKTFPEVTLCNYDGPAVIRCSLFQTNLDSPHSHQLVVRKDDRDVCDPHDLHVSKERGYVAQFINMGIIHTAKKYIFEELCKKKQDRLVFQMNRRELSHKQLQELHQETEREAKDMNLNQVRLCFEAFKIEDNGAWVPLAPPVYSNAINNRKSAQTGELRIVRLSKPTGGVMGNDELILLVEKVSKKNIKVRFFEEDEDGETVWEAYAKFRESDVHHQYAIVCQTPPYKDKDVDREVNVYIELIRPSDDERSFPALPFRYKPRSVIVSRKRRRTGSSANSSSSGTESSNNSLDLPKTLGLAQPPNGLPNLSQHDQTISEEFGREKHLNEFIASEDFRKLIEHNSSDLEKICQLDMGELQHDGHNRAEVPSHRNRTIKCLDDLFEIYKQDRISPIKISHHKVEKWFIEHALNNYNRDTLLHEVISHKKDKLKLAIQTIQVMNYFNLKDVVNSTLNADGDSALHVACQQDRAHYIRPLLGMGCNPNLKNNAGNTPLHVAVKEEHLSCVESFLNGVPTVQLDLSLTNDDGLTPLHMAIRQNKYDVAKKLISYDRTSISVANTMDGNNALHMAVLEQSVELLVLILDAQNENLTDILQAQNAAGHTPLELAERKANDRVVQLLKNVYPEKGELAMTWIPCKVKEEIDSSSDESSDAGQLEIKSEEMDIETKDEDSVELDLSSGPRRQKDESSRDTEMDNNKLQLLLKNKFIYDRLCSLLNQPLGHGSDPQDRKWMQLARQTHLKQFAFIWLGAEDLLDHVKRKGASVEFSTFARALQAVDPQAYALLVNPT
The experiment is described as follows: co-IP.

B1: His-tagged Akirin (natural protein, Drosophila melanogaster, UniProt Q9VS59 1-201, looked up)
chain: MACATLKRALDWESMNQRPPKRRRCNPFGQAGSNAGPASPSRDGPSTSAGLPHTPSNRFAKDSTEPSPFSESSLAKMSPDKMAESLCNEIKRLHKRKQLPITSSALERMQDSESSGSEMGPESPRRPDSPQNLMRHGEKALFTFKQVQLICESMIKERENQLRERYESVLTTKLAEQYDAFVKFTYDQIQRRYEAAPSYLS
Regarding B1, the binding result is “binds”.
